Results on four substances are retold here after IntAct's records for PubMed 37020021.

The target in the assay is T1, ncbp1_human NCBP1 (UniProt Q09161).
T1 sequence: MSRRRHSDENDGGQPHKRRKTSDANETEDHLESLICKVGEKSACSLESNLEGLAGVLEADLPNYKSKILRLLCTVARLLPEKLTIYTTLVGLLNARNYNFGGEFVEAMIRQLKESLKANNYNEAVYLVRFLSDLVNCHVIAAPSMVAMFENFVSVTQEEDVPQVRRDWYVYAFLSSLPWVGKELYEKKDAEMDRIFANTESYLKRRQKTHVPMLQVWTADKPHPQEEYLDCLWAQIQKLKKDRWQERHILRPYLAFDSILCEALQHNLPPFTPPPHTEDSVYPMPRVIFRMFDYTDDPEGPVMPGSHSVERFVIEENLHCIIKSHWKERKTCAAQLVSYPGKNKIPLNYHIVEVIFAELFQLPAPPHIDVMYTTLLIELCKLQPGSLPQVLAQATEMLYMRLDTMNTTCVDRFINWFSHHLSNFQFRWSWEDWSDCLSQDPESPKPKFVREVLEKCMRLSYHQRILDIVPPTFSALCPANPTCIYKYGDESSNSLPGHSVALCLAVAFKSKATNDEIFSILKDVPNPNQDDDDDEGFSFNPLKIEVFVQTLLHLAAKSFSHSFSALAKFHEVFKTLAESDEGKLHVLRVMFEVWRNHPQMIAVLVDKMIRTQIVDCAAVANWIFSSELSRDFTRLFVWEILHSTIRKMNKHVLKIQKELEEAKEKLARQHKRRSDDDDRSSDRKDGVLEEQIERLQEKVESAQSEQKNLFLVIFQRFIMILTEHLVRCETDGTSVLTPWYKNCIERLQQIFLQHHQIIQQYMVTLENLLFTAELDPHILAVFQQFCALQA

In the case of “THO complex subunit 4 (Homo sapiens) (from UniProt Q86V81) P170A”, the “effect of a mutation on the interaction” value is “decreasing interaction strength”.

“THO complex subunit 4 (Homo sapiens) (from UniProt Q86V81) F115S”: the “effect of a mutation on the interaction” value is recorded as “decreasing interaction strength”.

As for “THO complex subunit 4 (Homo sapiens) (from UniProt Q86V81) Q165E”, the “effect of a mutation on the interaction” value was “decreasing interaction strength”.

On to “THO complex subunit 4 (Homo sapiens) (from UniProt Q86V81) V169A”, for which the “effect of a mutation on the interaction” value was “decreasing interaction strength”.
